# Measured values taken from patent US5726147A, “Human mutant tissue factor compositions useful as tissue factor antagonists” (priority 1995, dated 1998).
# What was measured:
# Format in all cases: biochemical
# [1] = system: coagulation in recalcified plasma; assay: One stage clotting (coagulation) assay of specific functional activity of full-length TF mutants in CHO cell lysates; settings: full-length Ala mutant expressed in CHO cells, cell lysate, coagulant activity normalized to antigen, relative to wild-type TF
# Description: The full-length TF mutants prepared above were analyzed for function by coagulation assay. […] Coagulation factor deficient plasmas were purchased from George King Bio-medical. The chromogenic substrate, Spectrozyme FXa, was from American Diagnostica Inc. (Greenwich, Conn.).
# An alternative approach was to use a polyvalent antibody purified by affinity for capturing TF followed by detection with the TF8-5G9 monoclonal antibody described above.
# Initiation of coagulation by wild-type and mutant TF in recalcified plasma was determined after lysis of cell pellets from 2×10^6 cells/ml for each expressed full-length mutant with 15 mM octyl-glucopyranoside in HBS for 15 minutes at 37 C. followed by a 3-fold dilution.
# All data represented are based on at least three independent determinations performed in duplicate.
# [2] = system: recombinant VIIa; assay: Linked chromogenic assay with purified VIIa and factor X, apparent dissociation constant of the TF-VIIa interaction; settings: full-length Ala mutants, linked chromogenic assay
# Description: (§1) The lysate was prepared by treating cell pellets with 15 mM octyl-glucopyranoside for 15 minutes at 37 C. followed by a 3-fold dilution. […] Formed TF-VIIa complexes were quantified with substrate factor X added at 100 nM for a fixed time. Samples were then removed from the reaction and quenched in 100 mM EDTA in TBS (20 mM Tris-HCl 140 mM NaCl, pH 7.4). […] The rate of Spectrozyme hydrolysis, measured as the increase in absorbance (mOD/min), was determined at ambient temperature in a kinetic plate reader (Molecular Devices, Mountain View, Calif.) followed by quenching and monitoring of product factor Xa formation using the Spectrozyme FXa.
# Enzfitter (Elsevier Biosoft) programs were employed to calculate the KDapp from the experimentally determined bound VIIa, and free VIIa which was obtained by subtracting bound VIIa from the initial VIIa concentration.
# [3] = system: Factor X; assay: Functional cleavage of Factor X by the TF-VIIa complex (reaction rate Vmax), D44 mutants
# Description: as §1
# Additional mhuTF mutants were prepared based on amino acid residue substitutions at amino acid residue position number D44.
Molecule,loss of function (reduction in specific functional activity as % of wild-type activity) [1],change in KDapp for the TF-VIIa interaction compared to wild-type TF (ratio KD mutant/KD wild-type) [2] [fold],"loss of function (specific functional activity, Vmax) compared to wild-type ([3]; calculated from Vmax rates) [%]",reaction rate (Vmax) ([3]; cleavage of Factor X) [per second]
"Phe-140: human tissue factor mutant, Phe-140 substituted by Ala (protein, UniProt P13726 33-295, looked up, variant F140A) Tissue factor: SGTTNTVAAYNLTWKSTNFKTILEWEPKPVNQVYTVQISTKSGDWKSKCFYTTDTECDLTDEIVKDVKQTYLARVFSYPAGNVESTGSAGEPLYENSPEFTPYLETNLGQPTIQSFEQVGTKVNVTVEDERTLVRRNNTALSLRDVFGKDLIYTLYYWKSSSSGKKTAKTNTNEFLIDVDKGENYCFSVQAVIPSRTVNRKSTDSPVECMGQEKGEFREIFYIIGAVVFVVIILVIILAISLHKCRKAGVGQSWKENSPLNVS",30-50%,18,–,–
"R44: mhuTF in which arginine is substituted in place of D44 (protein, UniProt P13726 33-295, looked up, variant D44R) Tissue factor: SGTTNTVAAYNLTWKSTNFKTILEWEPKPVNQVYTVQISTKSGRWKSKCFYTTDTECDLTDEIVKDVKQTYLARVFSYPAGNVESTGSAGEPLYENSPEFTPYLETNLGQPTIQSFEQVGTKVNVTVEDERTLVRRNNTFLSLRDVFGKDLIYTLYYWKSSSSGKKTAKTNTNEFLIDVDKGENYCFSVQAVIPSRTVNRKSTDSPVECMGQEKGEFREIFYIIGAVVFVVIILVIILAISLHKCRKAGVGQSWKENSPLNVS",–,–,75,~0.5
"Arg-135: human tissue factor mutant, Arg-135 substituted by Ala (protein, UniProt P13726 33-295, looked up, variant R135A) Tissue factor: SGTTNTVAAYNLTWKSTNFKTILEWEPKPVNQVYTVQISTKSGDWKSKCFYTTDTECDLTDEIVKDVKQTYLARVFSYPAGNVESTGSAGEPLYENSPEFTPYLETNLGQPTIQSFEQVGTKVNVTVEDERTLVARNNTFLSLRDVFGKDLIYTLYYWKSSSSGKKTAKTNTNEFLIDVDKGENYCFSVQAVIPSRTVNRKSTDSPVECMGQEKGEFREIFYIIGAVVFVVIILVIILAISLHKCRKAGVGQSWKENSPLNVS",30-50%,7.4,–,–
